The supplement of paper PMC9170038

System: MS2 coat protein
Test: apparent KD of MS2 coat protein; designed switch direction (-1 OFF switch, 1 ON switch): -1; higher = weaker reporter binding
Procedure, shortened: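 For each design, the apparent KD is the median over clusters of curves fitted to normalised cluster fluorescence. Clusters held RNA switches with common flanks, transcribed on Illumina chips by stalled E. coli RNA polymerase. These were titrated with SNAP-549-labelled MS2 coat protein, doubling from 0.7 or 1.5 nM to 3 µM, without input, with 200 uM small-molecule ligand, or with an oligonucleotide input.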

[1] = input ligand: microRNA oligo, concentration not stated
[2] = Eterna round: R95, input ligand: FMN 200 uM
[3] = Eterna round: R95, input ligand: microRNA oligo, concentration not stated
[4] = Eterna round: R95, input ligand: none

| Sequence | apparent KD of MS2 coat protein (input ligand: FMN 200 uM) [µM] | apparent KD of MS2 coat protein (input ligand: none) [µM] | apparent KD of MS2 coat protein [1] [µM] | apparent KD of MS2 coat protein [2] [µM] | apparent KD of MS2 coat protein [3] [µM] | apparent KD of MS2 coat protein [4] [µM] |
| --- | --- | --- | --- | --- | --- | --- |
| UUUACAAGCUAUAGAUCCCACAUGAGGAUCACCCAUGUUGCUGCCGGUGACGGUAGCAUAACUAUUGCUCGUCUUAU [JL TOV1 3.61] (Eterna round: R97, puzzle: Sensor, turn-off variant 1) | 0.15 | 0.185 | – | – | – | – |
| AGUAGUUACGUAGGAUAUGAGGAUCACCCAUAGAAGGAUAUCGAAAGAGAAGGUCUGAGGAUUACCCAGAAGGACGUGACUACA [pwkr exNG2 2xF5 2xFMN.9] (Eterna round: R96, puzzle: Exclusion NG 2) | 0.334 | 0.138 | 0.113 | – | – | – |
| GUUUGCGCAGGAUAUACAUGAGGAUCACCCAUGUGAGAGAAAGAAGUGAGGAAGAAAAGUAGAAGGGCGUGACG [Mat - Exclusion 3 - Mod of Salish D72] (puzzle: Exclusion 3) | – | – | – | 0.301 | 0.0584 | 0.039 |
| AACGAAGCAGGAUAUACAUGAGGAUCACCCAUGUGCUUGCAUGGCGUGGGAAGUCAUAGUAGAAGGGCUACGCC [EX3 #62] (Eterna round: R97, puzzle: Exclusion 3) | 0.0536 | 0.0221 | – | – | – | – |
| CCGCGACAUGAGGAUCACCCAUGUUAGGAUAUGUGCGCCAACCAAGGAAUUGGUAGGUACAGAAGGAGCUGGGU [Eternabot (L2) Solution 97] (Eterna round: R97, puzzle: Exclusion 1) | 0.149 | 0.0563 | – | – | – | – |
| ACAAGCUUUUUGUUCGUCUUAUACACUCCUAAUAAGACAACAUGAGGAUCACCCAUGUAACAAAUAAGAACUCAUGU [Sesor Array 5 - Jieux - Sensor v3, turn-off variant 2] (puzzle: Sensor v3, turn-off variant 2) | – | – | – | 0.075 | 0.293 | 0.0902 |
| UUGAAGUCAUCAGGAUAUAGUUUUAAUGUCAUGCUUAAGUUCUUACAUGAGGAUCACCCAUGUCGCUAGAAGGGAUUAUAGAUU [JR_ExcNG2_Sub078] (Eterna round: R96, puzzle: Exclusion NG 2) | 0.0668 | 0.0677 | 0.0426 | – | – | – |
| AUGCGUGGCUAGGAUAUCGAGGAAUUUAGCCAGCGAGAAGGAGCCACAUGAGGAUCACCCAUGUGGUGAACCUU [jl-ex6-4.64 ViennaUCT mod] (Eterna round: R97, puzzle: Exclusion 6) | 0.0145 | 0.0158 | – | – | – | – |
| AUACCACGAGGAUAUCGUCUAUUCCACAUGAGGAUCACCCAUGUUAUCCAUGUUUCGUUUCGAGAAGGCGUGGGUU [JR_E5_Sub074] (Eterna round: R96, puzzle: Exclusion 5) | 0.0508 | 0.0516 | 0.0382 | – | – | – |
| GGUGAGCUACUAGGAUAUCUAGGCUAUUUACCUAGAGAAGGAGUCGCCUUCCCUCGCGUAGAUACAUGAGGAUCACCCAUGUAU [Eternabot solution 50] (Eterna round: R96, puzzle: Exclusion NG 1) | 0.0169 | 0.0181 | 0.0141 | – | – | – |
| UACUAUAAGGAGGAUAUCGUAUCGGAAACGAUACGAGAAGGCUUAACAUGAGGAUCACCCAUGUUCUUCAAUAU [Fiskers Ex 6 - 26] (puzzle: Exclusion 6) | – | – | – | 0.016 | 0.0162 | 0.0146 |
| CAGCUGAAAGUGAGGAUAUAGACUGCCUCGGCAGUCUAGAAGGCACAUGAGGAUCACCCAUGUCUCAACAGCUG [BmEx4/1-B2] (Eterna round: R97, puzzle: Brourd's mod of Exclusion 4) | 0.0702 | 0.0113 | – | – | – | – |
| UCACGGGAUUGAGGAUAUAUAUUAAUUUUUUUUAUAGAAGGCAAAUUGUUAGAUUAUUCACUAUACAUGAGGAUCACCCAUGUU [JR_ExcBG1_Sub077] (Eterna round: R96, puzzle: Exclusion NG 1) | – | – | 0.0199 | – | – | – |
| GAAUUAAUUAAUUAAUAAUACAUGAGGAUCACCCAUGUAGAUCCUACAUACAAUUUAAGUAGCUCGUCUUAUAAUUA [Stov1/1-A2] (Eterna round: R97, puzzle: Sensor, turn-off variant 1) | 0.108 | 0.202 | – | – | – | – |
| GGUCCACAUGAGGAUCACCCAUGUUAGGAUAUCUCGCCCGAGUCGUUAUGGGCCGGGCAGAGAAGGAAUGUGAA [Redion] (puzzle: Exclusion 1) | – | – | – | – | 0.0179 | – |
| GUAAUGUGAGGAUAUGGUAAAGAUAAGAUGAUGAAAGAACUCCAGAAGGCACAUGAGGAUCACCCAUGUAGAUG [Mat - Exclusion 4 - Mod of JL - D27] (puzzle: Exclusion 4) | – | – | – | – | 0.0261 | – |
| CCUCUACAUGAGGAUCACCCAUGUGAGGAUAUGCGAGGCGCACUCGAUGAGCGCGCCGGUAGAAGGCAUGUGGU [Raraveries] (Eterna round: R96, puzzle: Exclusion 1) | 0.067 | 0.0419 | 0.0298 | – | – | – |
| AAUAACAGAGGAUAUACUAUUUUAUGUAUUUAUUAUUUUAAACAUGAGGAUCACCCAUGUAGAAGGCUGAAUGA [JMF 54] (puzzle: Exclusion 2) | – | – | – | 0.0206 | 0.0216 | 0.0215 |
| CCAGACGCUGUGAGGAUAUGAAAAGGUGCUGCUUUUUAGAAGGCACAUGAGGAUCACCCAUGUGGUACCUCGGG [Eternabot (L1) Solution 20] (Eterna round: R97, puzzle: Brourd's mod of Exclusion 4) | 0.397 | 0.514 | – | – | – | – |
| GAAGGGCGUCUAGGAUAUAGUAUACGGCGAACAUGAGGAUCACCCAUGUGUCCGAAUGCGGCGAGCUAGAAGGAGAAUUCGCCC [Enuseszave] (Eterna round: R96, puzzle: Exclusion NG 2) | 0.0724 | 0.0491 | 0.0334 | – | – | – |
| UACACUCAGCAGGAUAUGCAACAAAAUUAAAACGCAGAAGGGUUGACAUGAGGAUCACCCAUGUAACUCAUGCA [EX6 A.1] (Eterna round: R97, puzzle: Exclusion 6) | 0.0142 | 0.0157 | – | – | – | – |
| AAGAAGUCAGGAUAUGCUAAAGAAAUAAAAAGAAAGAAAGAACAUGAGGAUCACCCAUGUAGAAGGGACAAGAA [Seheqenre Sankhptahi] (Eterna round: R96, puzzle: Exclusion 2) | – | – | 0.0318 | – | – | – |
| CCUCAACAGUAGGAUAUCAUAUAACUAUUGUGAUGAGAAGGACUGACAUGAGGAUCACCCAUGUUAACGUGAUA [Exclusion 6 - 5:b] (puzzle: Exclusion 6) | – | – | – | – | 0.0173 | – |
| UGAGUGCUGCGAGGAUAUACAUGAGGAUCACCCAUGUUUUCGUGUGAGGCAAAGCCUCACACGAUGUAGAAGGCGCAGUACUCU [Mat - Exclusion NG 2 - Mod of JL - D35] (Eterna round: R96, puzzle: Exclusion NG 2) | 0.0132 | 0.0161 | 0.0107 | – | – | – |
| AAUAUGUGAGGAUAUCAGGUGUGCUAGCGUACUGGUACAUCUGAGAAGGCACAUGAGGAUCACCCAUGUAUCUU [Mat - Exclusion 4 - Mod of JL - D45] (puzzle: Exclusion 4) | – | – | – | – | 0.0243 | – |
